Columns and labels:
[1] = molecular target: the molecule itself; test: fluorescence correlation spectroscopy (photon count-rate per molecule, CPM); increasing concentrations of cd1NiR-STAR 635 with 40 nM unlabelled cNOR in the solution; CPM fitted with the ligand-binding model (Eq. 2); apparent; monomer to dimer
[2] = molecular target: the molecule itself; test: fluorescence correlation spectroscopy (photon count-rate per molecule, CPM); increasing concentrations of cd1NiR-STAR 635 alone; CPM fitted with the ligand-binding model (Eq. 2); apparent; monomer to dimer; points above 15 nM not in the fit

B1: cytochrome cd1 nitrite reductase (cd1NiR) from Paracoccus pantotrophus, labelled with Abberior STAR 635 (enzyme, UniProt P72181 30-596, looked up)
chain: QEQVAPPKDPAAALEDHKTRTDNRYEPSLDNLAQQDVAAPGAPEGVSALSDAQYNEANKIYFERCAGCHGVLRKGATGKALTPDLTRDLGFDYLQSFITYGSPAGMPNWGTSGELSAEQVDLMANYLLLDPAAPPEFGMKEMRESWKVHVAPEDRPTQQENDWDLENLFSVTLRDAGQIALIDGATYEIKSVLDTGYAVHISRLSASGRYLFVIGRDGKVNMIDLWMKEPTTVAEIKIGSEARSIETSKMEGWEDKYAIAGAYWPPQYVIMDGETLEPKKIQSTRGMTYDEQEYHPEPRVAAILASHYRPEFIVNVKETGKILLVDYTDLDNLKTTEISAERFLHDGGLDGSHRYFITAANARNKLVVIDTKEGKLVAIEDTGGQTPHPGRGANFVHPTFGPVWATSHMGDDSVALIGTDPEGHPDNAWKILDSFPALGGGSLFIKTHPNSQYLYVDATLNPEAEISGSVAVFDIKAMTGDGSDPEFKTLPIAEWAGITEGQPRVVQGEFNKDGTEVWFSVWNGKDQESALVVVDDKTLELKHVIKDERLVTPTGKFNVYNTMTDTY
modifications: Abberior STAR 635 (amino-reactive dye, 5-fold molar excess; sites not stated); heme c and heme d1
notes: cytochrome cd1 nitrite reductase (cd1NiR), Paracoccus pantotrophus (G6), soluble periplasmic protein; 97% identical to the P. denitrificans enzyme; STAR 635-labelled in the fluorescence experiments; the activity assays (functional rows) used the same protein unlabelled; Written as the monomer chain; also called cd1NiR-STAR 635; cd1NIR-STAR 635
In the case of B1, the Kd [1] is reported as 5.3 ± 0.2 nM and the Kd [2] is reported as 3.5 ± 0.1 nM.
